# Measurements reported in US20230265185A1 (NATIONAL RESEARCH COUNCIL OF CANADA, published 2023).
# Columns and labels:
# [1] = molecular target: T1, hCD22 fragment Bin 1, IVR1 (aa1-135), displayed on yeast cells (human, UniProt P20273 20-154); assay: yeast display cell ELISA, OD on denatured over non-denatured CD22 fragment
# T1 construct: range 1-135; Range is counted on the mature ECD, not on the UniProt entry; on P20273 it would be 20-154 (my arithmetic); also called CD22 Sub-Domain 1; not shown: Aga2-HA display fusion partner of vector pPNL6; MYC tag
# T1 sequence (looked up): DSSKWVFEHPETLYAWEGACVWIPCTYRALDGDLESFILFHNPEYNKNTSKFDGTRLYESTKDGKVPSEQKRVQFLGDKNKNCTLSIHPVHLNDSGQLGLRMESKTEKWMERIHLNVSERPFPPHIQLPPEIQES
# Procedure: (§1) The YSD vector (pPNL6) was from The Pacific Northwest National Laboratory, USA. […] The HRP activity was assayed with substrate TMB (tetramethyl benzidine) according to the manufacture’s conditions and read at OD₄₅₀.
# (§2) Table 7 depicts the assessment of the nature of the epitopes of CD22 sdAbs to determine if the epitopes for the sdAbs are continuous (linear) or non-continuous (conformational). […] The binding of each sdAb to native and denatured CD22 fragments was measured as OD₄₅₀, and the ratio of the binding to denatured CD22 to non-denatured CD22 was calculated, with the ratio ≥ 0.5 indicative linear (L), and the ratio < 0.5 indicative of conformational (C) epitopes.
# [2] = molecular target: T1, hCD22 fragment Bin 1, IVR1 (aa1-135), …; assay: yeast display cell ELISA, biotinylated sdAb 250 nM
# Procedure: as §1
# (§3) The wells that gave rise to OD₄₅₀ above 0.25 were highlighted, indicating significant antibody-antigen interactions. All the sdAbs tested except hCd22_1ug-14 were assigned to specific Bin(s).
# [3] = molecular target: T1, hCD22 fragment Bin 1, IVR1 (aa1-135), …; assay: yeast display cell ELISA, heat denatured cells (80 C, 30 min)
# Procedure: as §1, §2
# [4] = molecular target: T2, full-length hCD22-ECD (668aa) displayed on yeast cells (human, UniProt P20273 20-687); assay: yeast display cell ELISA, OD on denatured over non-denatured CD22 ECD
# T2 construct: extracellular domain; Yeast surface display fusion Aga2-HA-(insert)-MYC; also called Bin 8; CD22-ECD Full lenght; not shown: Aga2-HA display fusion partner of vector pPNL6; MYC tag
# T2 sequence (looked up): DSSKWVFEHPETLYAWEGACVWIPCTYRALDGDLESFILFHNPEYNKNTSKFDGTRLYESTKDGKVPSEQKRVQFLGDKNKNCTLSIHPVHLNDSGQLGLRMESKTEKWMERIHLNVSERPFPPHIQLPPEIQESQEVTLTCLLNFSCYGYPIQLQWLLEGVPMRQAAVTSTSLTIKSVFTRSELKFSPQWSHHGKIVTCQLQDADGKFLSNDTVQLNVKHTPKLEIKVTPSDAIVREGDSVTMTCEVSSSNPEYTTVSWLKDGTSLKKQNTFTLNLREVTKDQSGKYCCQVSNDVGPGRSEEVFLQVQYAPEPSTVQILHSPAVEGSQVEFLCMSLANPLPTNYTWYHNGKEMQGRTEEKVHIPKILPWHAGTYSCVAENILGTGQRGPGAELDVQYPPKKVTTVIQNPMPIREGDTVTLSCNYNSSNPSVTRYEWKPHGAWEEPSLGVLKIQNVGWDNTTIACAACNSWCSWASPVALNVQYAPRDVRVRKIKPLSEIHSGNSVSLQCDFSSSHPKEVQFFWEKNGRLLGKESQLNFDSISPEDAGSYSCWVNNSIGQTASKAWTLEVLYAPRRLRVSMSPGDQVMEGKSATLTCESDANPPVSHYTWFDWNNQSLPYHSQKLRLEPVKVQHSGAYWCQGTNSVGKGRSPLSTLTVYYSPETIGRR
# Procedure: as §1, §2
# [5] = molecular target: T2, full-length hCD22-ECD (668aa) displayed …; assay: yeast display cell ELISA, native cells
# Procedure: as §1, §2
# [6] = molecular target: T2, full-length hCD22-ECD (668aa) displayed …; assay: yeast display cell ELISA, heat denatured cells (80 C, 30 min)
# Procedure: as §1, §2
# [7] = molecular target: T3, hCD22 fragment Bin 4, IVR4 (aa303-405), displayed on yeast cells (human, UniProt P20273 322-424); assay: yeast display cell ELISA, OD on denatured over non-denatured CD22 fragment
# T3 construct: Range is counted on the mature ECD, not on the UniProt entry; on P20273 it would be 322-424 (my arithmetic); also called CD22 Sub-Domain 4; not shown: Aga2-HA display fusion partner of vector pPNL6; MYC tag
# T3 sequence (looked up): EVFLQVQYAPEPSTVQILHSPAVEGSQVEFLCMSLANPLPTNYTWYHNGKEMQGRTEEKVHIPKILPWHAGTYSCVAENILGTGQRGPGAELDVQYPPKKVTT
# Procedure: as §1, §2
# [8] = molecular target: T3, hCD22 fragment Bin 4, IVR4 (aa303-405), …; assay: yeast display cell ELISA, biotinylated sdAb 250 nM
# Procedure: as §1, §3
# [9] = molecular target: T3, hCD22 fragment Bin 4, IVR4 (aa303-405), …; assay: yeast display cell ELISA, heat denatured cells (80 C, 30 min)
# Procedure: as §1, §2
binder,measurement,setting,value
"hCD221ug-80 (VHH, single biotin at the VHH C-terminal (biotinylation signal sequence), llama VHH, expressed in E. coli TG1, IMAC purified, monomeric SEC fraction; also called VHH # 1; 2-hCD22 1ug-80) VHH: QVQLVESGGGLVQPGGSLRLSCTFSGFTLDYYVMVWFRQAPGKEREAVSCITSDGVTYYADSVKGRFTISRDNAKNTVYLQMNRVKPEDTAVYYCAVDKPFYDGGIQYTCPVDFDSWGQGAQVTVSS",CD22 Ratio (D/ND),[1],0.762
same,OD450,[2],2.03 OD450
same,Heat Inactivated CD22 OD,[3],1.77 OD450
"hCD22pas-32 (VHH, single biotin at the VHH C-terminal (biotinylation signal sequence), llama VHH, expressed in E. coli TG1, IMAC purified, monomeric SEC fraction; also called VHH # 15; 6-hCD22 pas-32) VHH: QVQLVESGGGLVQAGGSLRLSCAVSGRIFRSYVLGWFRQAPGKERELVARIGWSDTYYADSVKGRFTISRDNAKNTVDLQMNSLKPEDTAVYYCAANSPPYGPQRDEFGYWGQGTQVTVSS",CD22 Ratio (D/ND),[4],0
same,Non denatured CD22 OD,[5],0.789 OD450
same,Heat Inactivated CD22 OD,[6],0 OD450
"hCD221ug-13 (VHH, single biotin at the VHH C-terminal (biotinylation signal sequence), llama VHH, expressed in E. coli TG1, IMAC purified, monomeric SEC fraction; also called VHH # 21; 1-hCD22 1ug-13) VHH: QVQLVESGGGLVQAGDSLRLSCAGSGGSFSSVTMAWFRQAPGKDREFVAAITWSSPSTYYADSVKGRFTISRDNAKNTVYLQMNSLKPEDTAVYYCAGGRTGRGTSADTDEYNYWGQGTQVTVSS",CD22 Ratio (D/ND),[7],0.557
same,OD450,[8],0.752 OD450
same,Heat Inactivated CD22 OD,[9],0.686 OD450
